By Km is commonly meant the substrate concentration at which the rate is half of its maximum.

Data on three molecules can be found in patent US6586216B2 (Purdue Research Foundation, priority 1997, dated 2003).

In series [1] the test system is O=P(O)(O)OC[C@H]1OC(OP(=O)(O)OP(=O)(O)O)[C@H](O)[C@@H]1O. Briefly: purified protein, by the assay type. The note with it: other: S347A enzyme; data not shown; pH 8.0; 37.0 °C.
In series [2] the target is T1, wild type B. subtilis glutamine PRPP amidotransferase (Bacillus subtilis, UniProt P00497).
T1 construct: Enzymes of the B. subtilis class are synthesized with an NH2 terminal propeptide and an Fe—S center; made in house; host or cells: E. coli strain TX158 (purF) with plasmid pGZ1
T1 sequence (P00497 12-476): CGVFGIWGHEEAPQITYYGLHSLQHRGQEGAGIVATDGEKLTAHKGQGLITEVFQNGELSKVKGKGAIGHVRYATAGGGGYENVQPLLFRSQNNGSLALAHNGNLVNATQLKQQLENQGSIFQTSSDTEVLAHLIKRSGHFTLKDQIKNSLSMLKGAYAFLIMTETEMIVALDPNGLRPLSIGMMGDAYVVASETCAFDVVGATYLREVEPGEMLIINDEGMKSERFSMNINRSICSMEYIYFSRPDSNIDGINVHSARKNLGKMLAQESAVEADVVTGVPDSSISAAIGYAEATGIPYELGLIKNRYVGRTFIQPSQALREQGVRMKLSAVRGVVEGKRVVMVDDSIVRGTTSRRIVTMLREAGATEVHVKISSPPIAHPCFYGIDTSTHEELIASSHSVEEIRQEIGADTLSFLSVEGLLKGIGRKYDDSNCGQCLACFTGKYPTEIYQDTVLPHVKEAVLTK
Briefly: Inhibition of enzyme activity by nucleotides (glutamate formation assay), wild type. It is filed as biochemical. As to conditions: read-out: Km PRPP; wild type enzyme; data not shown. How it is done: Enzyme activity was assayed by measuring the initial rate of formation of the product glutamate. […] Incubation was at 37° C. for 6 min. […] Reactions were quenched in a boiling water bath for 2 min, and glutamate was determined by the glutamate dehydrogenase method.
Inhibition by nucleotides was determined by the standard assay to which varied concentrations of nucleotide were added. Synergistic inhibition was determined by varying the concentration of one nucleotide in the presence of a fixed concentration of a second nucleotide. Relative activity (see FIG. 1) refers to the enzyme activity at a given concentration of the varied nucleotide relative to that in the absence of the varied nucleotide. I0.5 values were calculated from plots of relative activity versus varied nucleotide concentration.

Series [3] is described as follows: Specific activity of purified enzyme. It is filed as biochemical, Bacillus subtilis. The note with it: typical value. The method, then:
For enzyme purification, all buffers were sparged with nitrogen gas prior to use in order to minimize oxidation of the enzyme's Fe-S cluster. All steps were carried out at 4° C. Cells were resuspended in 4 mL/gram of buffer A [50 mM Tris-HCl (pH 8.0), 10 mM MgCl2, 0.1 mM EDTA, 5 mM DTT, and 2 mM AMP] containing 1 mM PMSF, and were disrupted by two passes through a French Press. The cell extract was obtained by centrifugation for 1 h at 27,000 g. Protamine sulfate (5 mg per gram of cells) was added to the extract to precipitate DNA. After centrifugation at 27,000 g for 30 min, the supernatant was applied to a 1.9×20 cm column of DEAE-Sepharose equilibrated with buffer A. The column was washed with 300 mL of buffer A and 300 mL of buffer A plus 0.1 M KCl and eluted with a linear salt gradient of 600 mL from 0.1 to 1.0 M KCl in buffer A. Brown-colored fractions containing the enzyme were precipitated by addition of ammonium sulfate to 40% saturation. After centrifugation, enzyme in the brown pellet was recovered by extraction twice with 30% saturated ammonium sulfate. […]
Enzyme activity was assayed by measuring the initial rate of formation of the product glutamate. […] Reactions were quenched in a boiling water bath for 2 min, and glutamate was determined by the glutamate dehydrogenase method. […]

“glutamine PRPP amidotransferase S347A mutant enzyme (Bacillus subtilis subsp. subtilis str. 168; S358A)”: in series [1], the Km is 182 µM.
Regarding `O=P(O)(O)OC[C@H]1OC(OP(=O)(O)OP(=O)(O)O)[C@H](O)[C@@H]1O` (stereo partly drawn) [PRPP, phosphoribosylpyrophosphate], the Km in series [2] is 75 to 81 µM.

B1: wild type: wild type B. subtilis glutamine PRPP amidotransferase produced from plasmid pGZ1 (protein, UniProt P00497 12-476, looked up)
Amidophosphoribosyltransferase: CGVFGIWGHEEAPQITYYGLHSLQHRGQEGAGIVATDGEKLTAHKGQGLITEVFQNGELSKVKGKGAIGHVRYATAGGGGYENVQPLLFRSQNNGSLALAHNGNLVNATQLKQQLENQGSIFQTSSDTEVLAHLIKRSGHFTLKDQIKNSLSMLKGAYAFLIMTETEMIVALDPNGLRPLSIGMMGDAYVVASETCAFDVVGATYLREVEPGEMLIINDEGMKSERFSMNINRSICSMEYIYFSRPDSNIDGINVHSARKNLGKMLAQESAVEADVVTGVPDSSISAAIGYAEATGIPYELGLIKNRYVGRTFIQPSQALREQGVRMKLSAVRGVVEGKRVVMVDDSIVRGTTSRRIVTMLREAGATEVHVKISSPPIAHPCFYGIDTSTHEELIASSHSVEEIRQEIGADTLSFLSVEGLLKGIGRKYDDSNCGQCLACFTGKYPTEIYQDTVLPHVKEAVLTK
B1 showed an Enzyme specific activity in series [3] of 25 nmol/min/mg.
